Measurements published in the supplement of paper PMC10567573.

B1: KRT18 (parent)
chain: KSQDLAKIMADIRAQYDELARKNR

Variants of: B1
Test: protein stability index of a GFP-peptide fusion (GPS, HEK-293T) (PSI 1-6); higher = more stable
Conditions: c terminus: a fixed tail appended
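Further: lentivirally expressed fusions sorted by FACS into six bins by GFP to DsRed ratio, PSI derived from sequencing read proportions per bin multiplied by bin number.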

Going from KSQDLAKIIADIRAQYDELARKNR to KSQDLAKIFADIRAQYDELARKNR, the protein stability index rises from 2.03 to 2.77.

Compared with KSQDLAKIHADIRAQYDELARKNR, KSQDLAKIPADIRAQYDELARKNR is higher in protein stability index: 3.68 for the first, 4.67 for the second.

Compared with KSQDLAKICADIRAQYDELARKNR, KSQDLAKIGADIRAQYDELARKNR is higher in protein stability index: 3.14 for the first, 4.12 for the second.

Going from KSQDLAKIAADIRAQYDELARKNR to KSQDLAKIDADIRAQYDELARKNR, the protein stability index rises from 3.71 to 4.72.

Going from KSQDLAKIRADIRAQYDELARKNR to KSQDLAKIYADIRAQYDELARKNR, the protein stability index falls from 3.8 to 3.08.

First: KSQDLAKIVADIRAQYDELARKNR
Second: KSQDLAKIKADIRAQYDELARKNR
The protein stability index of the first is lower: 2.73 for the first, 3.8 for the second.

First: KSQDLAKIEADIRAQYDELARKNR
Second: KSQDLAKILADIRAQYDELARKNR
The protein stability index of the first is higher: 4.63 for the first, 2.23 for the second.

Compared with KSQDLAKIQADIRAQYDELARKNR, KSQDLAKIWADIRAQYDELARKNR is lower in protein stability index: 3.64 for the first, 2.38 for the second.

Going from KSQDLAKITADIRAQYDELARKNR to KSQDLAKISADIRAQYDELARKNR, the protein stability index rises from 3.66 to 3.89.

Going from KSQDLAKINADIRAQYDELARKNR to KSQDGAKIMADIRAQYDELARKNR, the protein stability index rises from 4.11 to 4.49.

Going from KSQDQAKIMADIRAQYDELARKNR to KSQDAAKIMADIRAQYDELARKNR, the protein stability index falls from 4.06 to 3.72.

Compared with KSQDHAKIMADIRAQYDELARKNR, KSQDCAKIMADIRAQYDELARKNR is lower in protein stability index: 3.83 for the first, 3.02 for the second.

First: KSQDKAKIMADIRAQYDELARKNR
Second: KSQDSAKIMADIRAQYDELARKNR
The protein stability index of the first is lower: 3.75 for the first, 4.1 for the second.

Compared with KSQDMAKIMADIRAQYDELARKNR, KSQDRAKIMADIRAQYDELARKNR is higher in protein stability index: 2.99 for the first, 3.83 for the second.

Going from KSQDDAKIMADIRAQYDELARKNR to KSQDYAKIMADIRAQYDELARKNR, the protein stability index falls from 4.16 to 2.19.

Compared with KSQDIAKIMADIRAQYDELARKNR, KSQDTAKIMADIRAQYDELARKNR is higher in protein stability index: 2.38 for the first, 3.51 for the second.

First: KSQDEAKIMADIRAQYDELARKNR
Second: KSQDNAKIMADIRAQYDELARKNR
The protein stability index of the first is lower: 3.94 for the first, 4.26 for the second.

Compared with KSQDVAKIMADIRAQYDELARKNR, KSQDPAKIMADIRAQYDELARKNR is higher in protein stability index: 3.24 for the first, 3.59 for the second.

Going from KSQDFAKIMADIRAQYDELARKNR to KSQDWAKIMADIRAQYDELARKNR, the protein stability index rises from 2.45 to 2.62.

First: KSQDLNKIMADIRAQYDELARKNR
Second: KSQDLPKIMADIRAQYDELARKNR
The protein stability index of the first is lower: 3.01 for the first, 3.61 for the second.

Compared with KSQDLHKIMADIRAQYDELARKNR, KSQDLYKIMADIRAQYDELARKNR is lower in protein stability index: 2.71 for the first, 2.33 for the second.

First: KSQDLWKIMADIRAQYDELARKNR
Second: KSQDLFKIMADIRAQYDELARKNR
The protein stability index of the first is lower: 1.98 for the first, 2.17 for the second.

Compared with KSQDLCKIMADIRAQYDELARKNR, KSQDLLKIMADIRAQYDELARKNR is lower in protein stability index: 2.66 for the first, 2.65 for the second.

Going from KSQDLEKIMADIRAQYDELARKNR to KSQDLMKIMADIRAQYDELARKNR, the protein stability index falls from 2.78 to 2.33.

Going from KSQDLTKIMADIRAQYDELARKNR to KSQDLDKIMADIRAQYDELARKNR, the protein stability index falls from 2.94 to 2.8.

First: KSQDLVKIMADIRAQYDELARKNR
Second: KSQDLIKIMADIRAQYDELARKNR
The protein stability index of the first is higher: 2.29 for the first, 2.01 for the second.

First: KSQDLKKIMADIRAQYDELARKNR
Second: KSQDLRKIMADIRAQYDELARKNR
The protein stability index of the first is lower: 2.28 for the first, 2.54 for the second.

Compared with KSQDLSKIMADIRAQYDELARKNR, KSQDLQKIMADIRAQYDELARKNR is higher in protein stability index: 3.04 for the first, 3.14 for the second.

First: KSQDLGKIMADIRAQYDELARKNR
Second: KSQDLAYIMADIRAQYDELARKNR
The protein stability index of the first is higher: 3.31 for the first, 1.86 for the second.

First: KSQDLAHIMADIRAQYDELARKNR
Second: KSQDLAPIMADIRAQYDELARKNR
The protein stability index of the first is lower: 2.73 for the first, 3.88 for the second.

First: KSQDLAMIMADIRAQYDELARKNR
Second: KSQDLARIMADIRAQYDELARKNR
The protein stability index of the first is lower: 2.48 for the first, 2.5 for the second.

Going from KSQDLAVIMADIRAQYDELARKNR to KSQDLAIIMADIRAQYDELARKNR, the protein stability index falls from 3.32 to 2.16.

Compared with KSQDLAQIMADIRAQYDELARKNR, KSQDLAEIMADIRAQYDELARKNR is higher in protein stability index: 2.43 for the first, 2.47 for the second.

Going from KSQDLACIMADIRAQYDELARKNR to KSQDLALIMADIRAQYDELARKNR, the protein stability index falls from 2.63 to 2.37.

First: KSQDLAAIMADIRAQYDELARKNR
Second: KSQDLAFIMADIRAQYDELARKNR
The protein stability index of the first is higher: 2.41 for the first, 1.9 for the second.

Going from KSQDLAWIMADIRAQYDELARKNR to KSQDLATIMADIRAQYDELARKNR, the protein stability index rises from 2.14 to 2.67.

Compared with KSQDLADIMADIRAQYDELARKNR, KSQDLAGIMADIRAQYDELARKNR is higher in protein stability index: 2.76 for the first, 3.14 for the second.

First: KSQDLASIMADIRAQYDELARKNR
Second: KSQDLANIMADIRAQYDELARKNR
The protein stability index of the first is lower: 2.46 for the first, 2.86 for the second.

First: KRQDLAKIMADIRAQYDELARKNR
Second: KEQDLAKIMADIRAQYDELARKNR
The protein stability index of the first is lower: 2.56 for the first, 3.02 for the second.

Going from KMQDLAKIMADIRAQYDELARKNR to KHQDLAKIMADIRAQYDELARKNR, the protein stability index rises from 2.04 to 2.63.

Going from KTQDLAKIMADIRAQYDELARKNR to KIQDLAKIMADIRAQYDELARKNR, the protein stability index falls from 2.7 to 2.11.

Compared with KLQDLAKIMADIRAQYDELARKNR, KPQDLAKIMADIRAQYDELARKNR is higher in protein stability index: 1.73 for the first, 2.43 for the second.

Going from KAQDLAKIMADIRAQYDELARKNR to KCQDLAKIMADIRAQYDELARKNR, the protein stability index falls from 2.2 to 2.14.

First: KKQDLAKIMADIRAQYDELARKNR
Second: KFQDLAKIMADIRAQYDELARKNR
The protein stability index of the first is higher: 3.06 for the first, 1.84 for the second.

Compared with KQQDLAKIMADIRAQYDELARKNR, KYQDLAKIMADIRAQYDELARKNR is lower in protein stability index: 2.46 for the first, 2.04 for the second.

Going from KVQDLAKIMADIRAQYDELARKNR to KGQDLAKIMADIRAQYDELARKNR, the protein stability index rises from 1.9 to 2.59.

Going from KNQDLAKIMADIRAQYDELARKNR to KWQDLAKIMADIRAQYDELARKNR, the protein stability index falls from 2.41 to 1.86.
